Drawing on paper PMC11324745, this text covers percent of particles in the dimeric form and percent of particles in the tetrameric form for one molecule.

This test concerns the target DNA polymerase theta helicase domain (Polθ-hel, residues 1–894) (human), O75417. Briefly: cryo-EM structure. To be noted: remark: other sources report otherwise.

B1: DNA polymerase theta helicase domain (Polθ-hel, residues 1–894), O75417 1-894 (domain or fragment)
chain: MNLLRRSGKRRRSESGSDSFSGSGGDSSASPQFLSGSVLSPPPGLGRCLKAAAAGECKPTVPDYERDKLLLANWGLPKAVLEKYHSFGVKKMFEWQAECLLLGQVLEGKNLVYSAPTSAGKTLVAELLILKRVLEMRKKALFILPFVSVAKEKKYYLQSLFQEVGIKVDGYMGSTSPSRHFSSLDIAVCTIERANGLINRLIEENKMDLLGMVVVDELHMLGDSHRGYLLELLLTKICYITRKSASCQADLASSLSNAVQIVGMSATLPNLELVASWLNAELYHTDFRPVPLLESVKVGNSIYDSSMKLVREFEPMLQVKGDEDHVVSLCYETICDNHSVLLFCPSKKWCEKLADIIAREFYNLHHQAEGLVKPSECPPVILEQKELLEVMDQLRRLPSGLDSVLQKTVPWGVAFHHAGLTFEERDIIEGAFRQGLIRVLAATSTLSSGVNLPARRVIIRTPIFGGRPLDILTYKQMVGRAGRKGVDTVGESILICKNSEKSKGIALLQGSLKPVRSCLQRREGEEVTGSMIRAILEIIVGGVASTSQDMHTYAACTFLAASMKEGKQGIQRNQESVQLGAIEACVMWLLENEFIQSTEASDGTEGKVYHPTHLGSATLSSSLSPADTLDIFADLQRAMKGFVLENDLHILYLVTPMFEDWTTIDWYRFFCLWEKLPTSMKRVAELVGVEEGFLARCVKGKVVARTERQHRQMAIHKRFFTSLVLLDLISEVPLREINQKYGCNRGQIQSLQQSAAVYAGMITVFSNRLGWHNMELLLSQFQKRLTFGIQRELCDLVRVSLLNAQRARVLYASGFHTVADLARANIVEVEVILKNAVPFKSARKAVDEEEEAVEERRNMRTIWVTGRKGLTEREAAALIVEEARMILQQDLVEM
In the case of B1, the percent of particles in the dimeric form was determined as 95% and the percent of particles in the tetrameric form was 5%.
